Experimental data as given in article PMC3305660, “Regulatory interactions for iron homeostasis in Aspergillus fumigatus inferred by a Systems Biology approach”.

T1: SrbA161-267 (bHLHZ DNA-binding domain) (Aspergillus fumigatus, UniProt Q4WIN1 161-267)
T1 sequence: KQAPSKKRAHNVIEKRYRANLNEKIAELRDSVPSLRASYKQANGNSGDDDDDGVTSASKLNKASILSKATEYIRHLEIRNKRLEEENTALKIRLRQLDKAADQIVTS


target: T1, SrbA161-267 (bHLHZ DNA-binding domain); assay: SPR; SPR kinetics on immobilized biotinylated DNA duplexes; buffer, salt, pH and temperature not given in the material (details in Additional file 2); settings: protein: recombinant; chain copies: 2; label: 5' biotin on strand 1; blunt

Row | Binder | Kd [nM]
1 | srbApmm0mut (srbA* mutated site) (dsDNA) DNA 1: TTCCCGCGATATAACATAGTGCTCCG DNA 2: CGGAGCACTATGTTATATCGCGGGAA | 386 ± 7.3
2 | hemApmm12 (hemA -338 to -347) (dsDNA) DNA 1: CTGAGGCAATGAGGCGATGAGGCAAC DNA 2: GTTGCCTCATCGCCTCATTGCCTCAG | 35.7 ± 0.52
3 | hapXpmm11 (hapX -774 to -783) (dsDNA) DNA 1: GCCTTTGAATGGGAGGATTCTTTATT DNA 2: AATAAAGAATCCTCCCATTCAAAGGC | 282 ± 5.1
4 | hapXpmm12 (hapX -1340 to -1331) (dsDNA) DNA 1: CAGATAAGATCAGATGATGAAGGGAT DNA 2: ATCCCTTCATCATCTGATCTTATCTG | 4.64 ± 0.03
5 | hemApmm11 (hemA -527 to -518) (dsDNA) DNA 1: TCCCCAGTATCGGATCATACGGCTAC DNA 2: GTAGCCGTATGATCCGATACTGGGGA | 4.18 ± 0.41
6 | srbApmm0 (srbA -735 to -726) (dsDNA) DNA 1: TTCCCGCGATCATACGATGTGCTCCG DNA 2: CGGAGCACATCGTATGATCGCGGGAA | 0.63 ± 0.04
